Source: PMC9097636, “FOXO transcription factors differ in their dynamics and intra/intermolecular interactions” (Current Research in Structural Biology, 2022)
One block for each binder: values may come before it.

What was measured:
Test in all cases: NMR titration; 1H,15N HSQC of 50 uM 15N-labelled FH domain, unlabelled CR3 added in trans (25 uM or 50 uM); 50 mM NaH2PO4/Na2HPO4 pH 6.5, 0.04% NaN3, 5 mM DTT; 25 C; read-out chemical shift perturbations and line broadening
Settings in all cases: both partners purified
[1] = target: T1, FOXO1 forkhead (FH) domain, amino acids 143 to 270 (human, UniProt Q12778 143-270)
T1 construct: human FOXO1 (Forkhead box O1), Uniprot Q12778, amino acids 143 to 270, forkhead domain; Uniformly 15N-labelled in the NMR titrations; Cloned into the vector pETM11-ZZ-His6 via NcoI/BamHI; also called FOXO1^FH; FOXO1 FH domain; source: E. coli BL21-DE3 Star, purified (Ni-NTA, TEV cleavage, second Ni-NTA, SEC)

[2] = target: T2, FOXO6 forkhead (FH) domain, amino acids 71 to 191 (human, UniProt A8MYZ6 71-191)
T2 construct: human FOXO6 (Forkhead box O6), Uniprot A8MYZ6, amino acids 71 to 191, forkhead domain; Uniformly 15N-labelled in the NMR titrations; Cloned into the vector pETM11-ZZ-His6 via NcoI/BamHI; also called FOXO6^FH; FOXO6 FH domain; source: E. coli BL21-DE3 Star, purified (Ni-NTA, TEV cleavage, second Ni-NTA, SEC)

[3] = target: T3, FOXO3 forkhead (FH) domain, amino acids 141 to 260 (human, UniProt O43524 141-260)
T3 construct: human FOXO3 (Forkhead box O3), Uniprot O43524, amino acids 141 to 260, forkhead domain; Uniformly 15N-labelled in the NMR titrations; Cloned into the vector pETM11-ZZ-His6 via NcoI/BamHI; also called FOXO3^FH; FOXO3 FH domain; source: E. coli BL21-DE3 Star, purified (Ni-NTA, TEV cleavage, second Ni-NTA, SEC)
T3 sequence (O43524 141-260): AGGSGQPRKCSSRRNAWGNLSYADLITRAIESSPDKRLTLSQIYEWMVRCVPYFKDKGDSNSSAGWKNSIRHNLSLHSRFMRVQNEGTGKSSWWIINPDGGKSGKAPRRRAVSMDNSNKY

T1 sequence (Q12778 143-270): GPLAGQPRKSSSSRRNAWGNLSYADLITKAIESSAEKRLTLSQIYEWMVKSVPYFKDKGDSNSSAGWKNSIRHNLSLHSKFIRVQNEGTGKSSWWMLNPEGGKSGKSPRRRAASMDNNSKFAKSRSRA
T2 sequence (A8MYZ6 71-191): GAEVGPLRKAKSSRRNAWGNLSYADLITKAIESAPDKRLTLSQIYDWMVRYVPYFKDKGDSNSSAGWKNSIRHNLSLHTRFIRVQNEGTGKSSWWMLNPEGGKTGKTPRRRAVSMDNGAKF

- binding result [1]: binds
- binding result [2]: binds
B1: FOXO6 conserved region 3 (CR3, transactivation domain), amino acids 418 to 472 (domain or fragment, human, UniProt A8MYZ6 418-472, looked up)
chain: YAAAAAGPLGAAPDRFPADLDLDMFSGSLECDVESIILNDFMDSDEMDFNFDSAL
notes: human FOXO6, Uniprot A8MYZ6, amino acids 418 to 472, CR3; Unlabelled in the titrations; also called FOXO6^CR3; CR3 of FOXO6; source: E. coli BL21-DE3 Star, lysed in 6 M urea, purified (Ni-NTA, TEV cleavage, second Ni-NTA, SEC)

- binding result [1]: binds
- binding result [2]: binds
- binding result [3]: binds
B2: FOXO1 conserved region 3 (CR3, transactivation domain), amino acids 587 to 636 (domain or fragment, human, UniProt Q12778 587-636, looked up)
chain: YGRMGLLHQEKLPSDLDGMFIERLDCDMESIIRNDLMDGDTLDFNFDNVL
notes: human FOXO1, Uniprot Q12778, amino acids 587 to 636, CR3; Unlabelled in the titrations; also called FOXO1^CR3; CR3 of FOXO1; source: E. coli BL21-DE3 Star, lysed in 6 M urea, purified (Ni-NTA, TEV cleavage, second Ni-NTA, SEC)
